In the supplement of paper PMC10724198:
± gives the standard deviation of the averaged measurements.

Test system: Saccharomyces cerevisiae
Assay: protein stability index of tFT-peptide fusion (C-terminal peptide) (PSI (0-1 scale)); higher = more stable (slower turnover)
Conditions: genetic background: wild type; temperature: 30 C
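Also: PSI is a weighted mean of sequencing reads over stability bins, variants kept only with over 10 reads, mCherry proximal and sfGFP distal, peptide attached via GGGS linker.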

SSRELVDGVGIA
protein stability index: 0.763 ± 0.068

SSRVALRIPGIG
protein stability index: 0.678 ± 0.024

SSRVWPRRRSTA
protein stability index: 0.634 ± 0.052

SSSLSRLIPRDV
protein stability index: 0.774 ± 0.062

SSSPFVSDFLTL
protein stability index: 0.673 ± 0.042

SSSPLPPLRLCL
protein stability index: 0.743 ± 0.041

SSTLVAFRFPSP
protein stability index: 0.7014 ± 0.0043

SSWWGARVARRG
protein stability index: 0.756 ± 0.041

SSYGPAKSLGCA
protein stability index: 0.684 ± 0.023

STASSFFFFCCF
protein stability index: 0.664 ± 0.026

STCVRSRTCETP
protein stability index: 0.675 ± 0.021

STGAVGVSVCEG
protein stability index: 0.64 ± 0.022

STGPFFMIKGSF
protein stability index: 0.72 ± 0.027

STGRTSVNLCFS
protein stability index: 0.706 ± 0.041

STPFALVFLPFP
protein stability index: 0.688 ± 0.034

STPHPPPILHVL
protein stability index: 0.581 ± 0.013

STPPPRSLPSPP
protein stability index: 0.716 ± 0.045

STRGGLCFLRWV
protein stability index: 0.5543 ± 0.0019

STSLLTRTSSKL
protein stability index: 0.792 ± 0.015

STTCPTGLTVGR
protein stability index: 0.69 ± 0.054

STVESPNSLPPL
protein stability index: 0.676 ± 0.037

STVGRFPLSFHH
protein stability index: 0.726 ± 0.062

STWSLLKVGPAR
protein stability index: 0.6785 ± 0.0015

SVAPRPPFPFAI
protein stability index: 0.694 ± 0.026

SVAQHLRNGNMC
protein stability index: 0.745 ± 0.13

SVAWGGGVVEWG
protein stability index: 0.661 ± 0.11

SVDRVIPQERQS
protein stability index: 0.697 ± 0.013

SVGCRRGMDSRV
protein stability index: 0.702 ± 0.04

SVGIWSYGLCWF
protein stability index: 0.753 ± 0.055

SVGQWSGGRACW
protein stability index: 0.751 ± 0.043

SVGSSGFMLFCL
protein stability index: 0.741 ± 0.18

SVHTQLSPMDTT
protein stability index: 0.64 ± 0.018

SVILRMIGQKIK
protein stability index: 0.596 ± 0.038

SVIRTRYSSARM
protein stability index: 0.662 ± 0.057

SVKESKIQQNRE
protein stability index: 0.705 ± 0.11

SVLRRKDKGKRG
protein stability index: 0.654 ± 0.014

SVLVCSAIVIRK
protein stability index: 0.5998 ± 0.00079

SVLVHSFRSVNV
protein stability index: 0.66 ± 0.002

SVPPPPRTPSSI
protein stability index: 0.666 ± 0.03

SVRSVFVFGVIK
protein stability index: 0.664 ± 0.017

SVRSYYVRSMLE
protein stability index: 0.692 ± 0.076

SVRVRKGRYDNK
protein stability index: 0.707 ± 0.018

SVSGRYYAVRVR
protein stability index: 0.566 ± 0.0072

SVSVLSPPPLPP
protein stability index: 0.636 ± 0.015

SVVFSQCLVNLG
protein stability index: 0.659 ± 0.062

SVVLGSVHVLTR
protein stability index: 0.661 ± 0.015

SVWGGVPLVRET
protein stability index: 0.6854 ± 0.0015

SWAFAGGGAATG
protein stability index: 0.694 ± 0.011

SWFSPMCTTSPR
protein stability index: 0.677 ± 0.04

SWFVGFEGAVGG
protein stability index: 0.7563 ± 0.0046

SWHTSRPPPPPF
protein stability index: 0.656 ± 0.013

SWPDVCLTSPLS
protein stability index: 0.731 ± 0.042

SWQSRISLRIST
protein stability index: 0.648 ± 0.041

SWTWLFGFRRGL
protein stability index: 0.746 ± 0.11

SWVIRSDLHYAL
protein stability index: 0.731 ± 0.032

SYLDWFLVLDMF
protein stability index: 0.6706 ± 0.0047

SYLFRLLFATLP
protein stability index: 0.601 ± 0.033

SYLTQNGYAFRQ
protein stability index: 0.644 ± 0.082

SYNYMSIVMYRL
protein stability index: 0.587 ± 0.0071

SYRLILGSSPHP
protein stability index: 0.619 ± 0.089

SYSPRRRLNTPR
protein stability index: 0.699 ± 0.058

TACIVGLRLMRL
protein stability index: 0.787 ± 0.063

TAFGLMRQPCMG
protein stability index: 0.657 ± 0.052

TAGIIINCPIYL
protein stability index: 0.596 ± 0.038

TAHPCVYRRGAV
protein stability index: 0.675 ± 0.021

TALGLILSSFVY
protein stability index: 0.595 ± 0.067

TALGVCPRVMQN
protein stability index: 0.718 ± 0.039

TALKNLPSVSSV
protein stability index: 0.712 ± 0.1

TALQNAAPRTAS
protein stability index: 0.73 ± 0.11

TARGIRGICKSI
protein stability index: 0.711 ± 0.021

TASVDQAVRWRG
protein stability index: 0.708 ± 0.054

TAYRFYSYESSF
protein stability index: 0.678 ± 0.082

TCDGSCRRGDLR
protein stability index: 0.663 ± 0.066

TCLIFTCVLKFR
protein stability index: 0.485 ± 0.098

TCPDSVMDRLDS
protein stability index: 0.696 ± 0.12

TCRGGNPFRACC
protein stability index: 0.707 ± 0.054

TCVLYSSGFIYF
protein stability index: 0.665 ± 0.065

TDGLGGGVVGRE
protein stability index: 0.664 ± 0.011

TDIRMRRLNRDT
protein stability index: 0.684 ± 0.029

TDISPRFVSVYL
protein stability index: 0.656 ± 0.017

TEDGSYGESEQA
protein stability index: 0.642 ± 0.023

TEREAKKKKSKI
protein stability index: 0.704 ± 0.026

TFAALRVFSFLS
protein stability index: 0.666 ± 0.052

TFALAPLPPLPS
protein stability index: 0.68 ± 0.032

TFCPPSRYRPRA
protein stability index: 0.709 ± 0.008

TFFPPLPPPSPS
protein stability index: 0.702 ± 0.012

TFINVHRFCSAI
protein stability index: 0.647 ± 0.024

TFISNYSCILSL
protein stability index: 0.644 ± 0.013

TFPSADLYYSLL
protein stability index: 0.74 ± 0.049

TFSIACIPSSHK
protein stability index: 0.652 ± 0.025

TFTSTTLARPFS
protein stability index: 0.831 ± 0.036

TGAGGPGPRNRK
protein stability index: 0.774 ± 0.064

TGKHDIAQEQTK
protein stability index: 0.679 ± 0.028

TGLLGLVGSQVP
protein stability index: 0.67 ± 0.016

TGMYHSQPYPAA
protein stability index: 0.677 ± 0.0071

TGRERLAEGDWR
protein stability index: 0.692 ± 0.019

TGRWRWMRDLLS
protein stability index: 0.63 ± 0.032

TGVFFPPQLPLP
protein stability index: 0.69 ± 0.023

TGWASWVSVCLI
protein stability index: 0.5587 ± 0.00094

TGWLRLLHAASG
protein stability index: 0.656 ± 0.045

TGWWSPCRLDSS
protein stability index: 0.722 ± 0.024
